Measurements reported in paper PMC13079917 (Proceedings of the National Academy of Sciences of the …, 2026).

B1: L9 Fab (Fab, V domains shown)
VH: QVKLVESGGGVVQPGRSLRLSCEASGFIFSTYGMHWVRQAPGKGLEWVAVIWFDGSNIYYADSVKGRFTISRDNSKNTVFMQMDSLRAEDTAVYYCHRNFYDGSGPFDYWGQGTLVTVSS
VL: DIQMTQSPSTLSASVGDRVTITCRASQFISRWLAWYQQKPGKAPKLLIYKASSLESGVPSRFSGSGSETHFTLTISSLQPDDVATYYCQEYTSYGRTFGQGTKVEIK
notes: source: for crystallization: ExpiCHO cells, purified (HiTrap Protein G HP, size exclusion chromatography)
B2: Monoclonal antibody L9 (human IgG) (antibody, V domains shown)
VH: B1 VH
VL: B1 VL

Columns and labels:
Details in all cases: both partners purified
[1] = biological target: T1, SES-2 (single epitope scaffold 2); assay: SPR
T1 construct: also called SES-2 scaffold; source: FreeStyle 293F cells, transfected, purified (nickel column, Superdex 200 Increase gel filtration)

[2] = biological target: TES-1 (triple-epitope scaffold 1) (synthetic de novo design (grafts PfCSP …)); assay: KinExA (kinetic exclusion assay)
[3] = biological target: T2, J3 junctional peptide (Plasmodium falciparum (identical to 3D7 …)); assay: ELISA; plates coated with peptide at 2 ug/mL in PBS; antibodies diluted fourfold from 10 ug/mL; peroxidase secondary antibody
T2 construct: also called junctional peptide (J3)
T2 chain: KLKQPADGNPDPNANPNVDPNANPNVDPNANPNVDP

Row | Binder | Kd [1] [nM] | Kd [2] [nM] | binding result [3]
1 | B1 | 29 | – | –
2 | B2 | – | 0.085 | binds
